According to patent US20250011397A1 (HOSPITAL FOR SICK CHILDREN, published 2025):
Changes are numbered by the printed parent chain. Where two headings read alike, the source gives them in different places.

B1: mAb 46 (antibody, V domains shown)
VH: EVQLLESGGGLVQPGRSLRLSCAASGFTFSSYAMSWVRQAPGKGLEWVSTIYSGGSTYYADSVKGRFTISRDNSKNTLYLQMNSLRAEDTAVYYCARGDSRDAFDIWGQGTMVTVSS
VL: DIQMTQSPSSLSASVGDRVTITCRASQSISSWLAWYQQKPGKAPKLLIYDASNLETGVPSRFSGSGSGTDFTLTISSLQPEDFATYYCQQSYSTPFTFGPGTKVDIKR
notes: also called IgG 46; antibody 46
B2: mAb 52 (antibody, V domains shown)
VH: QVQLVQSGAEVKKPGSSVKVSCKASGYTFTSYGISWVRQAPGQGLEWMGGIIPMFGTTNYAQKFQGRVTITADKSTSTAYMELSSLRSEDTAVYYCARDRGDTIDYWGQGTLVTVSS
VL: DIQMTQSPSSLSASVGDRVTITCRASQGISNNLNWYQQKPGKAPKLLIYAASSLESGVPSRFSGSGSGTDFTLTISSLQPEDFATYYCQQGNGFPLTFGPGTKVDIKR
notes: also called IgG 52; antibody 52
B3: mAb 82 (antibody, V domains shown)
VH: QVQLVQSGAEVKKPGASVKVSCKASGGSFSTSAFYWVRQAPGQGLEWMGWINPYTGGTNYAQKFQGRVTMTRDTSTSTVYMELSSLRSEDTAVYYCARSRALYGSGSYFDYWGQGTLVTVSS
VL: B1 VL with S28V, S31N, W32Y, Y92F, T94P, F96P, P100Q, K103R, V104L, D105E
notes: also called IgG 82
B4: mAb 324 (antibody, V domains shown)
VH: QVQLVQSGAEVKKPGASVKVSCKASGGTFNNYGISWVRQAPGQGLEWMGWMNPNSGNTGYAQKFQGRVTMTRDTSTSTVYMELSSLRSEDTAVYYCARVGDYGDYIVSPFDLWGRGTLVTVSS
VL: B1 VL with S30T, S31T, W32Y, A34N, F96P, P100Q, D105E
notes: also called IgG 324
B5: mAb 236 (antibody, V domains shown)
VH: QVQLVQSGAEVKKPGASVKVSCKASGGTFTSYGINWVRQAPGQGLEWMGWMNPNSGNTGYAQKFQGRVTMTRDTSTSTVYMELSSLRSEDTAVYYCASRGIQLLPRGMDVWGQGTTVTVSS
VL: not shown
notes: also called IgG 236
B6: mAb 56 (antibody, V domains shown)
VH: QVQLVQSGAEVKKPGASVKVSCKASGYTFTSYGISWVRQAPGQGLEWMGWISAYNGNTNYAQKLQGRVTMTRDTSTSTVYMELSSLRSEDTAVYYCARDIGPIDYWGQGTLVTVSS
VL: B1 VL with S28G, W32Y, E55Q, T56S, S91A, Y92N, T94F, F96S, P100Q, D105E
notes: also called IgG 56
B7: mAb 64 (antibody, V domains shown)
VH: EVQLLESGGGLVQPGGSLRLSCAASGFPFSQHGMHWVRQAPGKGLEWVSAIDRSGSYIYYADSVKGRFTISRDNSKNTLYLQMNSLRAEDTAVYYCARDTYGGKVTYFDYWGQGTLVTVSS
VL: B1 VL with S28G, W32H, S91T, F96W, P100Q, D105E
notes: also called IgG 64
B8: mAb 349 (antibody, V domains shown)
VH: EVQLLESGGGLVQPGGSLRLSCAASGFTFSNYGMHWVRQAPGKGLEWVSGISSAGSITNYADSVKGRFTISRDNSKNTLYLQMNSLRAEDTAVYYCAGNHAGTTVTSEYFQHWGQGTLVTVSS
VL: B1 VL with A51T, S93T, F96W, P100Q, K103R, V104L, D105E
notes: also called IgG 349
B9: mAb 178 (antibody, V domains shown)
VH: QVQLVQSGAEVKKPGASVKVSCKASGYTFTDYHMHWVRQAPGQGLEWMGWINPNSGGTNYAQKFQGRVTMTRDTSTSTVYMELSSLRSEDTAVYYCARDISSWYEITKFDPWGQGTLVTVSS
VL: EIVMTQSPATLSVSPGERATLSCKASQSVSGTYLAWYQQKPGQAPRLLIYGASTRATGIPARFSGSGSGTEFTLTISSLQSEDFAVYYCLQTHSYPPTFGQGTKVEIKR
notes: also called IgG 178
B10: mAb 108 (antibody, V domains shown)
VH: QVQLVQSGAEVKKPGASVKVSCKASGYIFSRYAIHWVRQAPGQGLEWMGWMNPISGNTDYAPNFQGRVTMTRDTSTSTVYMELSSLRSEDTAVYYCAKDGSQLAYLVEYFQHWGQGTLVTVSS
VL: B1 VL with S28V, S30T, S31N, W32N, N53T, S93T, T94F, F96Y, P100Q, D105E
B11: mAb 128 (antibody, V domains shown)
VH: QVQLVQSGAEVKKPGASVKVSCKASGYTFTHYYMHWVRQAPGQGLEWMGIINPSSSSASYSQKFQGRVTMTRDTSTSTVYMELSSLRSEDTAVYYCARDGRYGSGSYPFDYWGQGTLVTVSS
VL: DIQMTQSPSSLSASVGDRVTITCRASQNISRYLNWYQQKPGKAPKLLIYDASNLETGVPSRFSGSGSGTDFTLTISSLQPEDFATYYCQQANGFPPTFGQGTKLEIKR
B12: mAb 160 (antibody, V domains shown)
VH: QVQLVQSGAEVKKPGASVKVSCKASGYTFTGHDMHWVRQAPGQGLEWMGIINPSGGSTSYAQKFQGRVTMTRDTSTSTVYMELSSLRSEDTAVYYCARANSLRYYYGMDVWGQGTMVTVSS
VL: DIQMTQSPSSLSASVGDRVTITCRASQSVSSWLAWYQQKPGKAPKLLIYAASSLQSGVPSRFSGSGSGTDFTLTISSLQPEDFATYYCQQGYTTPYTFGQGTKLEIKR
notes: also called IgG 160
B13: mAb 158 (antibody, V domains shown)
VH: QVQLVQSGAEVKKPGASVKVSCKASGYTFTGYYMHWVRQAPGQGLEWMGWINPLNGGTNFAPKFQGRVTMTRDTSTSTVYMELSSLRSEDTAVYYCARDPGGSYSNDAFDIWGQGTLVTVSS
VL: B11 VL with N28S, T56S, G93S, P96L, Q100G, L104V, E105D
notes: also called IgG 158
B14: mAb 254 (antibody, V domains shown)
VH: EVQLLESGGGLVQPGGSLRLSCAASGFTFSSSAMHWVRQAPGKGLEWVSAIGTGGDTYYADSVKGRFTISRDNSKNTLYLQMNSLRAEDTAVYYCAREGDGYNFYFDYWGQGTLVTVSS
VL: DIQMTQSPSSLSASVGDRVTITCRASQGISSYLAWYQQKPGKAPKLLIYDASSLQIGVPSRFSGSGSGTDFTLTISSLQPEDFATYYCLQSYSTPPWTFGQGTKVEIKR
notes: also called IgG 254
B15: mAb 120 (antibody, V domains shown)
VH: QVQLVQSGAEVKKPGASVKVSCKASGYTFTSYDINWVRQAPGQGLEWMGMIDPSGGSTSYAQKFQGRVTMTRDTSTSTVYMELSSLRSEDTAVYYCAKDFGGGTRYDYWYFDLWGRGTLVTVSS
VL: EIVMTQSPATLSVSPGERATLSCRASQSVSSRYLAWYQQKPGQAPRLLIYGASTRATGIPARFSGSGSGTEFTLTISSLQSEDFAVYYCQQYYTTPRTFGQGTRLEIKR
notes: also called IgG 120
B16: 4A8 IgG (antibody, V domains shown)
VH: EVQLVESGAEVKKPGASVKVSCKVSGYTLTELSMHWVRQAPGKGLEWMGGFDPEDGETMYAQKFQGRVTMTEDTSTDTAYMELSSLRSEDTAVYYCATSTAVAGTPDLFDYYYGMDVWGQGTTVTVSS
VL: EIVMTQSPLSSPVTLGQPASISCRSSQSLVHSDGNTYLSWLQQRPGQPPRLLIYKISNRFSGVPDRFSGSGAGTDFTLKISRVEAEDVGVYYCTQATQFPYTFGQGTKVDIK
notes: also called IgG 4A8

Assays:
[1] = molecular target: T1, SARS-CoV-2 receptor binding domain (RBD), wild type, His-tagged (BEI NR52309) (SARS-CoV-2, UniProt P0DTC2 319-541)
T1 construct: also called WT RBD

[2] = molecular target: T1, SARS-CoV-2 receptor binding domain …; remark: listed apart in the source
[3] = molecular target: T1, SARS-CoV-2 receptor binding domain …; assay: RBD KD column; method and antibody format not stated
[4] = molecular target: T1, SARS-CoV-2 receptor binding domain …; remark: listed apart in the source
[5] = molecular target: T1, SARS-CoV-2 receptor binding domain …; remark: listed apart in the source
[6] = molecular target: T1, SARS-CoV-2 receptor binding domain …; assay: RBD KD column; method and antibody format not stated; remark: listed apart in the source
[7] = molecular target: T2, SARS-CoV-2 Spike, prefusion S ectodomain (BEI NR52394), His-tagged (SARS-CoV-2, UniProt P0DTC2 14-1213); assay: BLI, His-tagged Spike on Ni-NTA biosensors, 1:1 fit
T2 construct: extracellular domain; also called S protein; S glycoprotein

| Binder | RBD binding [1] | RBD binding [2] | Kd [3] [nM] | RBD binding [4] | RBD binding [5] | Kd [6] [nM] | Kd [7] [nM] | koff [7] [s⁻¹] | kon [7] [M⁻¹ s⁻¹] |
| --- | --- | --- | --- | --- | --- | --- | --- | --- | --- |
| B1 | 0.2 | 0.2 | 83 | 1.2 | 1.3 | 83 | – | – | – |
| B2 | 0.4 | 0.5 | – | 0.8 | 1.3 | – | – | – | – |
| B3 | 0.6 | 1.4 | 206 | 0.4 | 0.6 | 206 | – | – | – |
| B4 | 1 | 1.2 | 111 | 0.2 | 0.1 | 111 | – | – | – |
| B5 | 1 | 1.2 | 145 | 0.2 | 0.1 | 145 | – | – | – |
| B6 | – | – | 23 | – | – | 23 | – | – | – |
| B7 | – | – | 97 | – | – | 97 | – | – | – |
| B8 | – | – | 74 | – | – | 74 | – | – | – |
| B9 | – | – | 72 | – | – | 72 | – | – | – |
| B10 | – | – | 72 | – | – | 72 | – | – | – |
| B11 | – | – | 57 | – | – | 57 | – | – | – |
| B12 | – | – | 7.7 | – | – | 7.7 | – | – | – |
| B13 | – | – | 172 | – | – | 172 | – | – | – |
| B14 | – | – | 127 | – | – | 127 | – | – | – |
| B15 | – | – | 24 | – | – | 24 | – | – | – |
| B16 | – | – | – | – | – | – | 1.42 | 0.000191 | 133000 |
